Experimental data reported in patent US20220193237A1 (Bristol-Myers Squibb, published 2022).
Positions count from the first letter of the chain named.

T1: monomeric human CTLA-4 (human, UniProt P16410 36-161, limits assumed)
T1 construct: Soluble monomeric analyte in SPR; also called huCTLA-4
T1 sequence: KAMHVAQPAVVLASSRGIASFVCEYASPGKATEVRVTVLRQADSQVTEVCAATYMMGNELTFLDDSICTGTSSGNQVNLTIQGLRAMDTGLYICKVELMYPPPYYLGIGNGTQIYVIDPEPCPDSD

B1: ipi.69 Fab (Fab, V domains shown)
VH: QVQLVESGGGVVQPGRSLRLSCAASGFTFSHYTMHWVRQAPGKGLEWVTFISYDGHNKYYADSVKGRFTISRDNSKNTLYLQMNSLRAEDTAIYYCARTGWLGPFDYWGQGTLVTVSS
VL: not shown
notes: Tested as monovalent Fab
B2: ipi.92 Fab (Fab, V domains shown)
VH: B1 VH with T99H
VL: EIVLTQSPGTLSLSPGERATLSCRASQEVGDSELAWYQQKPGQAPRLLIYGAFSRATGIPDRFSGSGSGTDFTLTISRLEPEDFAVYYCQQYGSSPWTFGQGTKVEIKR
notes: Tested as monovalent Fab
B3: ipi.66 Fab (Fab, V domains shown)
VH: B1 VH with H31S
VL: not shown
notes: Tested as monovalent Fab
B4: ipi.82 Fab (Fab, V domains shown)
VH: B1 VH with H56N, T99H
VL: not shown
notes: Tested as monovalent Fab
B5: ipi.20 Fab (Fab, V domains shown)
VH: B1 VH with H31S, H56N
VL: not shown
notes: Tested as monovalent Fab
B6: ipi.95 Fab (Fab, V domains shown)
VH: B1 VH
VL: B2 VL
notes: Tested as monovalent Fab
B7: ipi.94 Fab (Fab, V domains shown)
VH: B1 VH with H56N
VL: B2 VL
notes: Tested as monovalent Fab
B8: ipi.86 Fab (Fab, V domains shown)
VH: B1 VH with H56N, T99H
VL: not shown
notes: Tested as monovalent Fab
B9: ipi.59 Fab (Fab, V domains shown)
VH: B1 VH with H31S
VL: not shown
notes: Tested as monovalent Fab
B10: ipi.7 Fab (Fab, V domains shown)
VH: B1 VH with H31S, T33H, H56N, N57H
VL: not shown
notes: Tested as monovalent Fab
B11: ipi.84 Fab (Fab, V domains shown)
VH: B1 VH with T99H
VL: not shown
notes: Tested as monovalent Fab
B12: ipi.71 Fab (Fab, V domains shown)
VH: B1 VH
VL: not shown
notes: Tested as monovalent Fab
B13: ipi.88 Fab (Fab, V domains shown)
VH: B1 VH with T99H
VL: not shown
notes: Tested as monovalent Fab
B14: ipi.93 Fab (Fab, V domains shown)
VH: B1 VH with H31S, H56N
VL: B2 VL
notes: Tested as monovalent Fab
B15: ipi.24 Fab (Fab, V domains shown)
VH: B1 VH with H31S, H56N
VL: not shown
notes: Tested as monovalent Fab
B16: ipi.23 Fab (Fab, V domains shown)
VH: B1 VH with H31S, H56N
VL: not shown
notes: Tested as monovalent Fab
B17: ipi.26 Fab (Fab, V domains shown)
VH: B1 VH with H31S, H56N
VL: not shown
notes: Tested as monovalent Fab
B18: ipi.105, non-fucosylated IgG1 (antibody, V domains shown)
VH: B1 VH
VL: B2 VL with D31E
modifications: non-fucosylated N-linked glycan
notes: Non-fucosylated full-length human IgG1; also called Ipi.105 IgG1-NF
B19: ipi.106, non-fucosylated IgG1 (antibody, V domains shown)
VH: B1 VH with T99H
VL: B2 VL with D31E
modifications: non-fucosylated N-linked glycan
notes: Non-fucosylated full-length human IgG1; also called Ipi.106 IgG1-NF

Target: T1, monomeric human CTLA-4
Experiment: SPR, captured Fab, pH 6.0 vs 7.4
Description: (§1) Binding of selected variants to human CTLA-4 was determined essentially as described in Example 3. […] Nomenclature and sequences for these antibodies is provided at Tables 6 and 7, and in the sequence listing as summarized at Table 8.
(§2) Monomeric human CTLA-4 was flowed as analyte with up to 2 μM top concentration. Between cycles, the capture surface was regenerated with 75 mM phosphoric acid. Experiments were run on a BIACORE® T200 instrument at 37° C. Running buffers were HEPES buffered saline for pH 7.4 experiments and Bis-Tris buffered saline for lower pH experiments. […] Double referenced sensorgrams were fitted to a 1:1 Langmuir binding model with mass transport to determine equilibrium dissociation constants (KD), as well as association (kₐ) and dissociation (kd) rate constants where appropriate.

Binder | KD 7.4/6 (APBP) | ka 6/7.4 | t1/2 6/7.4
B1 | 6.3 | 1.3 | 4.7
B2 | > 59 | – | –
B3 | 7.6 | 1.8 | 4.3
B4 | 4.4 | – | –
B5 | 2.6 | 2 | 1.3
B6 | 99 | – | –
B7 | 52 | – | –
B8 | 15 | – | –
B9 | 1.9 | 1.3 | 1.5
B10 | 0.8 | 1.1 | 0.7
B11 | 7.7 | – | –
B12 | 25 | 2 | 12.2
B13 | 27 | – | –
B14 | 16 | – | –

Target: T1, monomeric human CTLA-4
Experiment: SPR, captured Fab, second experiment of Table 3
Description: (§3) See Example 3. Antibodies were tested as monovalent Fab fragments to simplify analysis.
as §2

Binder | ratio of KD (7.4/6.0) normalized to the ratio of ipilimumab
B15 | 4.1
B16 | 5.1
B17 | 4.3

Target: T1, monomeric human CTLA-4
Experiment: SPR, captured Fab, pH 7.4, second experiment
Description: as §3, §2

Binder | Kd [nM] | koff [s⁻¹] | kon [M⁻¹ s⁻¹]
B15 | 24 | 0.0099 | 420000
B16 | 27 | 0.013 | 490000
B17 | 30 | 0.012 | 410000

Target: T1, monomeric human CTLA-4
Experiment: SPR, captured Fab, pH 6.0
Description: as §1, §2

Binder | Kd [nM] | kon [M⁻¹ s⁻¹] | t1/2 [s]
B1 | 4.4 | 1.1e+06 | 144
B2 | 17 | 1.8e+06 | 22
B3 | 3.5 | 1.2e+06 | 161
B4 | 31 | 1.4e+06 | 16
B5 | 32 | 1.6e+06 | 14
B6 | 2.8 | 1.9e+06 | 126
B7 | 5.2 | 1.9e+06 | 70
B8 | 12 | 1.6e+06 | 36
B9 | 11 | 1e+06 | 63
B10 | 1.7 | 1.2e+06 | 347
B11 | 16 | 1.3e+06 | 35
B12 | 1.6 | 1.5e+06 | 289
B13 | 6.5 | 2e+06 | 53
B14 | 13 | 1.7e+06 | 32

Target: T2, human CTLA-4 on 58 α-β-CTLA-4/CD3 ζ cells (human; mouse (mCD3ζ))
T2 construct: also called 58αβ-hCTLA4/mCD3ζ cells; 58αβ-CTLA4/mCD3ζ cells
Experiment: flow cytometry, non-fucosylated IgG1 on 58αβ-CTLA4/mCD3ζ cells, pH 6.7
Description: (§4) Antibodies were titrated from 100 μg/mL at a 1:4 dilution across 12 points in pH-specific buffers and incubated for 30-60 minutes. Buffers contained HBSS, 2% FBS^HI, 0.02% sodium azide, 2 mM EDTA, and sodium phosphate buffer (pH 5.4). Sodium phosphate buffer was added until desired pH was reached (7.2, 6.7, 6.2). Approximately 3e5 cells/well were tested for each cell line. […] Detection was done with a monovalent anti-hKappa secondary nanobody conjugated to Alexa647 and used at a dilution of 1:2000. Cells were fixed with BD Fix Solution I for 30 minutes prior to resuspension in pH-specific buffers and reading on the cytometer (BD Fortessa).

Binder | Cmax (MFI) | EC50 [nM]
B18 | 110000 | 3.45
B19 | 80200 | 4.37

Target: T2, human CTLA-4 on 58 α-β-CTLA-4/CD3 ζ …
Experiment: flow cytometry, non-fucosylated IgG1 on 58αβ-CTLA4/mCD3ζ cells, pH 7.2
Description: as §4

Binder | Cmax (MFI) | EC50 [nM]
B18 | 107000 | 3.94
B19 | 62000 | 11.5

Target: T1, monomeric human CTLA-4
Experiment: SPR, captured Fab, pH 6.0, second experiment
Description: as §3, §2

Binder | Kd [nM] | koff [s⁻¹] | kon [M⁻¹ s⁻¹]
B15 | 7.2 | 0.006 | 830000
B16 | 6.5 | 0.0062 | 960000
B17 | 8.9 | 0.007 | 790000

Target: T1, monomeric human CTLA-4
Experiment: SPR, captured Fab, pH 7.4
Description: as §1, §2

Binder | Kd [nM] | kon [M⁻¹ s⁻¹] | t1/2 [s]
B1 | 28 | 820000 | 30
B2 | > 1000 | – | –
B3 | 26 | 700000 | 36
B4 | 130 | – | –
B5 | 84 | 790000 | 11
B6 | 280 | – | –
B7 | 270 | – | –
B8 | 180 | – | –
B9 | 21 | 810000 | 41
B10 | 1.5 | 1e+06 | 462
B11 | 120 | – | –
B12 | 39 | 740000 | 24
B13 | 170 | – | –
B14 | 210 | – | –

Target: T2, human CTLA-4 on 58 α-β-CTLA-4/CD3 ζ …
Experiment: flow cytometry, non-fucosylated IgG1 on 58αβ-CTLA4/mCD3ζ cells, pH 6.2
Description: as §4

Binder | Cmax (MFI) | EC50 [nM]
B18 | 107000 | 2.6
B19 | 88000 | 3.15

Target: T1, monomeric human CTLA-4
Experiment: SPR, captured Fab, pH 6.0 vs 7.4, second experiment
Description: as §3, §2

Binder | KD 7.4/6 (APBP) | ka 6/7.4 | kd 7.4/6
B15 | 3.3 | 2 | 1.7
B16 | 4.1 | 2 | 2.1
B17 | 3.4 | 2 | 1.7

Target: T2, human CTLA-4 on 58 α-β-CTLA-4/CD3 ζ …
Experiment: cell-based or functional assay

Binder | IC50 (read off the curve), mIL-2 secretion, 58αβ-hCTLA/mCD3ζ:rhB7-1 blocking assay, 18 h, pH 6.8 [nM]
B18 | ~2

Target: T2, human CTLA-4 on 58 α-β-CTLA-4/CD3 ζ …
Experiment: cell-based or functional assay
Remark: another data set of the same source

Binder | IC50 (read off the curve), mIL-2 secretion, 58αβ-hCTLA/mCD3ζ:rhB7-1 blocking assay, 18 h, pH 7.0 [nM]
B18 | ~4
